Residue numbers refer to the chain shown, from its start. Blank lines part the entries; values can stand above or below the binder they belong to.
Tests used:
[1] = molecular target: T1, mucin subtype 5AC (human, UniProt P98088 28-5654, limits assumed); assay: ELISA, plate coated with crude extract antigen solution of SW1990 xenograft tumor, HRP anti-human IgG; reference antibody
T1 construct: Not a purified recombinant protein; also called MUC5AC; crude extract antigen solution
Experimental: (§1) Various antibodies were added to a 96 well plate coated with various antigens, and the plate was left standing for 1 hr at room temperature. The plate was washed, a blocking solution was added, and the mixture was left standing for 30 min at room temperature. The plate was washed, HRP-conjugated anti-human IgG was added, and the mixture was left standing for 1 hr or longer at room temperature. The plate was washed, a color development reagent (Bethyl Laboratories, Inc.) was added, and the degree of color development was measured by a microplate reader (VersaMax, Molecular Devices, LLC.).
(§2) In Table 2 and Table 3, a tumor mass collected from a cancer-bearing model mouse transplanted with human pancreatic cancer cell line SW1990 was homogenized, and the supernatant (crude extract antigen solution) after centrifugation was used as an antigen. In Table 4, a mucin fraction obtained by isopycnic centrifugation using cesium chloride from the crude extract antigen solution was used as the antigen.

[2] = molecular target: T1, mucin subtype 5AC; assay: ELISA, plate coated with mucin fraction (CsCl isopycnic centrifugation of SW1990 tumor crude extract), HRP anti-human IgG
Experimental: as §1, §2

[3] = molecular target: T1, mucin subtype 5AC; assay: ELISA, plate coated with crude extract antigen solution of SW1990 xenograft tumor, HRP anti-human IgG
Experimental: as §1, §2

in vitro binding activity ratio to antibody 20 [2]: 0.75 fold vs antibody 20
B5: antibody 17 (antibody, V domains shown)
VH: EVQLLESGGGLVQPGGSLRLSCAASGFTFSNYGMSWVRQAPGKGLEWVSTISNSGRYTYFPDSVKGRFTISRDNSKNTLYLQMNSLRAEDTAVYYCAKHLDYANYDAMDYWGQGTLVTVSS
VL: DIQMTQSPSSLAVSLGDRVTITCRASKSVTTSDFSYMHWYQQKPGLAPKLLIYLASNLESGVPSRFSGSGSGTDFTFTISSLQPEDIATYYCQHSREFPWTFGQGTKVEVK
notes: also called H05L05

in vitro binding activity ratio to antibody 1 [3]: 0.71 fold vs antibody 1
B6: antibody 6 (antibody, V domains shown)
VH: B5 VH with E1L, L5V, L11V, Q13R, V37I, S75A, T78S, V93L, A97T, K98R
VL: DVVMTQSPSTLSASVGDRVTITCRASKSVTTSDFSYMHWYQQKPGQAPKLLIYLASNLESGVPSRFSGSGSGTDFTLTISSLQPEDFATYYCQHSREFPWTFGQGTKLEIK
notes: Humanized antibody of the invention; also called H02L02

in vitro binding activity ratio to antibody 1 [3]: 0.99 fold vs antibody 1
in vitro binding activity ratio to antibody 20 [2]: 1.56 fold vs antibody 20
B13: antibody 3 (antibody, V domains shown)
VH: B5 VH with V93L, A97T, K98R
VL: B6 VL with V2I, V3Q, T10S, Q46K, A47S, T76S, Q104G, L108V
notes: Humanized antibody of the invention; also called H01L03

in vitro binding activity ratio to antibody 9 [1]: 1 fold vs antibody 9
B14: antibody 9 (antibody, V domains shown)
VH: B5 VH with E1L, L5V, L11V, G16R, S49A, A97T, K98R
VL: B6 VL with V2I, T10S, Q46K, Q104G, L108V
notes: Humanized antibody of the invention; also called H03L01

in vitro binding activity ratio to antibody 1 [3]: 0.72 fold vs antibody 1
in vitro binding activity ratio to antibody 20 [2]: 0.7 fold vs antibody 20
B15: antibody 8 (antibody, V domains shown)
VH: B5 VH with E1L, L5V, L11V, Q13R, V37I, S75A, T78S, V93L, A97T, K98R
VL: DIVMTQSPDSLAVSLGERATINCKASKSVTTSDFSYLHWYQQKPGQPPKLLIYLASNLESGVPDRFSGSGSGTDFTLTISSLQAEDVAVYYCQHSREFPWTFGGGTKLEIK
notes: Humanized antibody of the invention; also called H02L04

in vitro binding activity ratio to antibody 1 [3]: 0.6 fold vs antibody 1
B17: antibody 5 (antibody, V domains shown)
VH: B5 VH with E1L, L5V, L11V, Q13R, V37I, S75A, T78S, V93L, A97T, K98R
VL: B6 VL with V2I, T10S, Q46K, Q104G, L108V
notes: Humanized antibody of the invention; also called H02L01

Second part, the binder before the results:

B1: antibody 1 (antibody, V domains shown)
VH: B5 VH with V93L, A97T, K98R
VL: B6 VL with V2I, T10S, Q46K, Q104G, L108V
notes: Humanized antibody of the invention; also called H01L01
in vitro binding activity ratio to antibody 1 [1]: 1 fold vs antibody 1

B2: antibody 18 (antibody, V domains shown)
VH: B5 VH with L5V, Q13K, S75A, T78S, K98R
VL: DIVMTQTPLSSPVTLGQPASISCRASKSVTTSDFSYMHWLQQRPGQPPRLLIYLASNLESGVPDRFSGSGAGTDFTLKISRVEAEDVGVYYCQHSREFPWTFGQGTKVEIK
notes: also called H06L06
in vitro binding activity ratio to antibody 20 [2]: 0.13 fold vs antibody 20

B3: antibody 4 (antibody, V domains shown)
VH: B5 VH with V93L, A97T, K98R
VL: B15 VL
notes: Humanized antibody of the invention; also called H01L04
in vitro binding activity ratio to antibody 1 [3]: 0.99 fold vs antibody 1
in vitro binding activity ratio to antibody 20 [2]: 0.97 fold vs antibody 20

B4: antibody 19 (antibody, V domains shown)
VH: B5 VH
VL: B2 VL with S11L, P12S, L15P, L40Y, Q41L, R43K, R49Q, A71S
notes: also called H05L07
in vitro binding activity ratio to antibody 20 [2]: 0.49 fold vs antibody 20

B7: antibody 14 (antibody, V domains shown)
VH: B5 VH with A24V, K76R, S85T, A97T, K98R, L116P
VL: B6 VL
notes: Humanized antibody of the invention; also called H04L02
in vitro binding activity ratio to antibody 9 [3]: 1.04 fold vs antibody 9

B8: antibody 10 (antibody, V domains shown)
VH: B5 VH with E1L, L5V, L11V, G16R, S49A, A97T, K98R
VL: B6 VL
notes: Humanized antibody of the invention; also called H03L02
in vitro binding activity ratio to antibody 9 [3]: 0.96 fold vs antibody 9

B9: antibody 2 (antibody, V domains shown)
VH: B5 VH with V93L, A97T, K98R
VL: B6 VL
notes: Humanized antibody of the invention; also called H01L02
in vitro binding activity ratio to antibody 1 [3]: 1.03 fold vs antibody 1

B10: antibody 7 (antibody, V domains shown)
VH: B5 VH with E1L, L5V, L11V, Q13R, V37I, S75A, T78S, V93L, A97T, K98R
VL: B6 VL with V2I, V3Q, T10S, Q46K, A47S, T76S, Q104G, L108V
notes: Humanized antibody of the invention; also called H02L03
in vitro binding activity ratio to antibody 1 [3]: 0.65 fold vs antibody 1

B11: antibody 12 (antibody, V domains shown)
VH: B5 VH with E1L, L5V, L11V, G16R, S49A, A97T, K98R
VL: B15 VL
notes: Humanized antibody of the invention; also called H03L04
in vitro binding activity ratio to antibody 9 [3]: 0.91 fold vs antibody 9

B12: antibody 15 (antibody, V domains shown)
VH: B5 VH with A24V, K76R, S85T, A97T, K98R, L116P
VL: B6 VL with V2I, V3Q, T10S, Q46K, A47S, T76S, Q104G, L108V
notes: Humanized antibody of the invention; also called H04L03
in vitro binding activity ratio to antibody 9 [3]: 1.36 fold vs antibody 9

B16: antibody 11 (antibody, V domains shown)
VH: B5 VH with E1L, L5V, L11V, G16R, S49A, A97T, K98R
VL: B6 VL with V2I, V3Q, T10S, Q46K, A47S, T76S, Q104G, L108V
notes: Humanized antibody of the invention; also called H03L03
in vitro binding activity ratio to antibody 9 [3]: 1.25 fold vs antibody 9

B18: antibody 13 (antibody, V domains shown)
VH: B5 VH with A24V, K76R, S85T, A97T, K98R, L116P
VL: B6 VL with V2I, T10S, Q46K, Q104G, L108V
notes: Humanized antibody of the invention; also called H04L01
in vitro binding activity ratio to antibody 9 [3]: 0.9 fold vs antibody 9

B19: antibody 16 (antibody, V domains shown)
VH: B5 VH with A24V, K76R, S85T, A97T, K98R, L116P
VL: B15 VL
notes: Humanized antibody of the invention; also called H04L04
in vitro binding activity ratio to antibody 9 [3]: 0.88 fold vs antibody 9
in vitro binding activity ratio to antibody 20 [2]: 1.09 fold vs antibody 20
